Substrate in the series: NC(=O)C[C@H](N)C(=O)O
Description: circular dichroism hydrolysis assay. In kind it is biochemical, Rhodospirillum rubrum. The following applies: native RrA, pH 7.5, 5 mM citrate-phosphate-borate buffer, 37 °C. The source says:
circular dichroism hydrolysis assay on RrA (L-asparaginase from Rhodospirillum rubrum)
(Circular dichroism is widely used to follow secondary structure.)

Consider 1 protein from publication PMC9029710, “Improvement of Biocatalytic Properties and Cytotoxic Activity of L-Asparaginase from Rhodospirillum rubrum by Conjugation with Chitosan-Based Cationic Polyelectrolytes” (Pharmaceuticals, 2022).

Usually Km stands for the substrate concentration at which the rate is half of its maximum. In general, Vmax refers to the rate approached at saturating substrate.

B1: RrA (L-asparaginase from Rhodospirillum rubrum) (Rhodospirillum rubrum ATCC 11170) (protein)
chain: MAVSPSPLRIFTAGGTIDKDYRLEENGLVVGDPFVAEVLKTARLAGAVSIVALSRKDSLDFTEADREAIGRAVGQAVEDHILLTHGTDTMVETARYLGGLPELAGKTVVLSGAMVPGRVGGSDAAFNIGFACAAALMLAPGVYIAMHGKVFDPAKTRKNRGLGRFEPIDDQE
notes: 172 aa, 18 kDa, tetramer; native unconjugated enzyme
For the protein B1, the Km amounted to 4.8 ± 1.6 mM, the Vmax was found to be 59 µmol/min/mg and the Vmax/Km stood at 12300 µL/min/mg.
